# Source: the Human Domainome abundance scans (Beltran et al. 2025)
# ± gives the uncertainty stated by the source.
# B1: Homeobox protein cut-like 1, residues 548 to 629; numbered along this chain, P39880 (parent)
# chain: GEEMDTAEIARQVKEQLIKHNIGQRIFGHYVLGLSQGSVSEILARPKPWNKLTVRGKEPFHKMKQFLSDEQNILALRSIQGR
# Variants of: B1
# Assay: abundance fitness (aPCA) (normalised: wild type 0, dead -1); higher = more abundant; growth selection in yeast, the domain comes from the species named
# Conditions: Homo sapiens
row,Variant,abundance fitness
1,K51P,-0.912 ± 0.27
2,K51N,0.012 ± 0.07
3,K51R,-0.047 ± 0.044
4,K51T,0.011 ± 0.07
5,A10S,-0.151 ± 0.034
6,A44V,-0.137 ± 0.029
7,A44T,0.057 ± 0.035
8,A44K,-0.094 ± 0.04
9,L76I,-0.291 ± 0.066
10,L76Q,-0.6 ± 0.086
11,L76P,-0.586 ± 0.12
12,G1R,-0.041 ± 0.035
13,G1L,-0.03 ± 0.059
14,G1C,-0.026 ± 0.061
15,H20P,-0.677 ± 0.062
16,H20I,-0.601 ± 0.14
17,H20A,-0.348 ± 0.031
18,V31W,-0.133 ± 0.031
19,V31L,-0.391 ± 0.035
20,V13Q,-0.574 ± 0.06
21,V13E,-0.608 ± 0.06
22,V13S,-0.56 ± 0.044
23,V13L,-0.423 ± 0.036
24,V13P,-0.564 ± 0.053

row,Variant,abundance fitness
1,V13W,-0.721 ± 0.07
2,S38A,0.072 ± 0.025
3,G81H,0.04 ± 0.08
4,G81P,-0.103 ± 0.077
5,G81N,0.117 ± 0.065
6,K64G,-0.43 ± 0.026
7,K64Q,0.033 ± 0.036
8,F60G,-0.952 ± 0.045
9,F60Q,-0.761 ± 0.063
10,I42N,-0.633 ± 0.12
11,Q65Y,-0.169 ± 0.055
12,Q65N,0.022 ± 0.057
13,Q65E,0.053 ± 0.028
14,Q65I,-0.096 ± 0.08
15,G23L,-0.081 ± 0.031
16,G23Q,0.043 ± 0.032
17,R77W,-0.336 ± 0.041
18,R77H,-0.096 ± 0.088
19,R77N,-0.118 ± 0.057
20,H29Y,-0.125 ± 0.06
21,H29D,-0.036 ± 0.047
22,N50P,-0.003 ± 0.14
23,M63L,-0.423 ± 0.038
24,M63E,-0.872 ± 0.056

row,Variant,abundance fitness
1,M63W,-1.02 ± 0.071
2,M63Y,-0.94 ± 0.14
3,E58H,-0.618 ± 0.11
4,E58C,-0.441 ± 0.065
5,E58W,-0.227 ± 0.033
6,E58M,-0.132 ± 0.04
7,E58L,-0.121 ± 0.032
8,P48K,-0.452 ± 0.049
9,P48F,-0.513 ± 0.11
10,P48V,-0.374 ± 0.032
11,S68D,-0.02 ± 0.043
12,S68M,-0.083 ± 0.037
13,S68C,-0.133 ± 0.041
14,S68K,-0.023 ± 0.036
15,A75L,-0.061 ± 0.032
16,A75N,0.187 ± 0.061
17,A75E,0.092 ± 0.034
18,A75D,0.109 ± 0.049
19,A75S,0.041 ± 0.031
20,P59F,0.052 ± 0.068
21,P59L,0.133 ± 0.035
22,P59N,0.113 ± 0.084
23,Y30T,-0.147 ± 0.035
24,Y30G,-0.552 ± 0.029

row,Variant,abundance fitness
1,Y30R,-0.201 ± 0.025
2,E15F,-0.363 ± 0.23
3,E15S,0.034 ± 0.093
4,R55K,0.066 ± 0.031
5,R55M,-0.028 ± 0.038
6,R55Y,-0.096 ± 0.068
7,R55P,-0.159 ± 0.036
8,E70C,-0.118 ± 0.047
9,E70F,-0.213 ± 0.063
10,E70V,-0.154 ± 0.03
11,E70T,-0.121 ± 0.047
12,E70Q,-0.047 ± 0.044
13,E3L,-0.107 ± 0.031
14,E3I,-0.081 ± 0.066
15,E3F,0.1 ± 0.063
16,R45S,0.041 ± 0.033
17,R45W,-0.201 ± 0.034
18,P46E,-0.779 ± 0.061
19,P46S,-0.652 ± 0.046
20,P46Q,-0.482 ± 0.051
21,S35C,-0.086 ± 0.052
22,S35W,-0.311 ± 0.036
23,R82K,0.123 ± 0.07
24,R82H,0.063 ± 0.13

row,Variant,abundance fitness
1,R82P,0.065 ± 0.063
2,R82Q,0.172 ± 0.067
3,R82T,-0.039 ± 0.052
4,I79Q,0.011 ± 0.039
5,I79V,0.015 ± 0.028
6,I79W,-0.09 ± 0.04
7,I79T,-0.157 ± 0.037
8,T53K,-0.686 ± 0.096
9,T53M,-0.45 ± 0.059
10,T53W,-0.566 ± 0.066
11,E8S,-0.119 ± 0.032
12,E8I,-0.22 ± 0.06
13,E8M,-0.149 ± 0.038
14,K62F,-0.603 ± 0.11
15,K62P,-0.989 ± 0.089
16,K62W,-0.749 ± 0.047
17,K62M,-0.231 ± 0.041
18,K62Y,-0.522 ± 0.095
19,V54M,0.119 ± 0.056
20,V54C,-0.063 ± 0.051
21,V54L,0.028 ± 0.036
22,Q71E,0.06 ± 0.033
23,Q71R,-0.049 ± 0.027
24,Q71D,-0.035 ± 0.049

row,Variant,abundance fitness
1,Q71V,-0.2 ± 0.032
2,N21H,0.009 ± 0.063
3,N21C,-0.181 ± 0.048
4,N21Y,-0.469 ± 0.12
5,N21S,-0.084 ± 0.032
6,A7H,0.01 ± 0.051
7,A7Q,-0.028 ± 0.035
8,A7G,-0.17 ± 0.024
9,A7P,-0.532 ± 0.046
10,A7E,-0.029 ± 0.031
11,A7V,-0.121 ± 0.029
12,I18V,0 ± 0.029
13,I18E,0.064 ± 0.031
14,S78R,0.003 ± 0.027
15,S78N,0.018 ± 0.049
16,S78Y,-0.223 ± 0.052
17,I26P,-0.517 ± 0.056
18,M4I,0.101 ± 0.055
19,M4T,-0.204 ± 0.038
20,M4E,-0.191 ± 0.033
21,M4R,-0.517 ± 0.029
22,R11C,-0.327 ± 0.1
23,H61Q,0.04 ± 0.034
24,R25G,0.082 ± 0.021

row,Variant,abundance fitness
1,R25W,-0.072 ± 0.03
2,R25P,-0.068 ± 0.039
3,V39F,-0.165 ± 0.093
4,V39L,-0.101 ± 0.031
5,T6W,-0.884 ± 0.062
6,T6D,-0.859 ± 0.096
7,I73Y,-0.627 ± 0.13
8,I73G,-0.44 ± 0.03
9,G37N,-0.016 ± 0.065
10,G37W,-0.057 ± 0.029
11,L67S,-1.01 ± 0.088
12,L67D,-0.876 ± 0.12
13,F27C,-1.03 ± 0.23
14,E41I,-0.477 ± 0.1
15,E41V,-0.433 ± 0.034
16,E41H,-0.353 ± 0.1
17,G56N,-0.22 ± 0.063
18,Q24V,0.043 ± 0.029
19,Q24E,0.053 ± 0.029
20,Q24F,-0.094 ± 0.084
21,Q24N,-0.069 ± 0.088
22,F66P,-0.77 ± 0.089
23,F66C,-0.963 ± 0.14
